Results taken from article PMC10397247.

How the values were obtained:
[1] = target: T1, 4H2618-bN; assay: two-hybrid library CCNG1;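 further: natural log of median RNA to DNA barcode read ratio; higher means stronger binding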
T1 chain: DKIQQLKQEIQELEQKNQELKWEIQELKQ

[2] = target: T2, 4H2667-bN; assay: two-hybrid library CCNG1;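 further: natural log of median RNA to DNA barcode read ratio; higher means stronger binding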
T2 chain: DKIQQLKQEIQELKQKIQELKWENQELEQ

[3] = target: T3, 4H2729-bN; assay: two-hybrid library CCNG1;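 further: natural log of median RNA to DNA barcode read ratio; higher means stronger binding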
T3 chain: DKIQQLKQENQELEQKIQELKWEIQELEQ

[4] = target: T4, 4H3112-bN; assay: two-hybrid library CCNG1;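 further: natural log of median RNA to DNA barcode read ratio; higher means stronger binding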
T4 chain: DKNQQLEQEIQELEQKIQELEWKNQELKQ

[5] = target: T5, 4H3185-bN; assay: two-hybrid library CCNG1
T5 chain: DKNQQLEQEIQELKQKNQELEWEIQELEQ

[6] = target: T6, 4H331-bN; assay: two-hybrid library CCNG1
T6 chain: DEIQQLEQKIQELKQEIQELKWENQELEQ

[7] = target: T7, 4H3354-bN; assay: two-hybrid library CCNG1
T7 chain: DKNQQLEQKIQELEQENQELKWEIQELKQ

[8] = target: T8, 4H338-bN; assay: two-hybrid library CCNG1
T8 chain: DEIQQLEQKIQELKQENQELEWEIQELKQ

[9] = target: T9, 4H3427-bN; assay: two-hybrid library CCNG1
T9 chain: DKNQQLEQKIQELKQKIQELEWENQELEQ

[10] = target: T10, 4H3628-bA; assay: two-hybrid library CCNG1
T10 chain: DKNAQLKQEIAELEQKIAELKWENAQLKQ

[11] = target: T11, 4H3782-bN; assay: two-hybrid library CCNG1
T11 chain: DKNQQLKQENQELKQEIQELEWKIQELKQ

[12] = target: T12, 4H3855-bN; assay: two-hybrid library CCNG1
T12 chain: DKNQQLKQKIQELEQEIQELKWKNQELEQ

[13] = target: T13, 4H4001-bN; assay: two-hybrid library CCNG1
T13 chain: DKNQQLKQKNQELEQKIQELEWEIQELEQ

[14] = target: T14, 4H454-bN; assay: two-hybrid library CCNG1
T14 chain: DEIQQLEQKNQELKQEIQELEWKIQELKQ

[15] = target: T15, 4H568-bN; assay: two-hybrid library CCNG1
T15 chain: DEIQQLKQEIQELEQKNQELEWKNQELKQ

[16] = target: T16, 4H607-bN; assay: two-hybrid library CCNG1
T16 chain: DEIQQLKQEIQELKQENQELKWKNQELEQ

[17] = target: T17, 4H687-bN; assay: two-hybrid library CCNG1
T17 chain: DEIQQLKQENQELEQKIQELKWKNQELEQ

[18] = target: T18, 4H717-bN; assay: two-hybrid library CCNG1
T18 chain: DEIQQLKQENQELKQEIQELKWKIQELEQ

[19] = target: T19, 4H72-bN; assay: two-hybrid library CCNG1
T19 chain: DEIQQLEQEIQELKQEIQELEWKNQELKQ

[20] = target: T20, 4H754-bN; assay: two-hybrid library CCNG1
T20 chain: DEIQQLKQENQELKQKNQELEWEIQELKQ

[21] = target: T21, 4H797-bN; assay: two-hybrid library CCNG1
T21 chain: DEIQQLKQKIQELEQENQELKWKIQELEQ

[22] = target: T22, 4H883-bN; assay: two-hybrid library CCNG1
T22 chain: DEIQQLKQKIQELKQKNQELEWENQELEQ

[23] = target: T23, 4H908-bN; assay: two-hybrid library CCNG1
T23 chain: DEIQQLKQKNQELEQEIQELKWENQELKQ

[24] = target: T24, 4H918-bN; assay: two-hybrid library CCNG1
T24 chain: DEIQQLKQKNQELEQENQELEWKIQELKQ

[25] = target: T25, 4H953-bN; assay: two-hybrid library CCNG1
T25 chain: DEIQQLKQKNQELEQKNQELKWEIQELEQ

[26] = target: T26, 4H967-bN; assay: two-hybrid library CCNG1
T26 chain: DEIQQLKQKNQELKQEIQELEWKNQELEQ

[27] = target: T27, APC2375-AA; assay: two-hybrid library CCmax
T27 chain: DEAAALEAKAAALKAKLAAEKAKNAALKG

[28] = target: T28, APC2474-AA; assay: two-hybrid library CCmax; conditions: mean of both orientations
T28 chain: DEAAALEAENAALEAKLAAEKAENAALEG

[29] = target: T29, APC2543-AA; assay: two-hybrid library CCmax; conditions: mean of both orientations
T29 chain: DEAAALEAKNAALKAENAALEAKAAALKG

[30] = target: T30, APC2556-AA; assay: two-hybrid library CCmax; conditions: mean of both orientations
T30 chain: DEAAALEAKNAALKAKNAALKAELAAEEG

[31] = target: T31, APC2724-AA; assay: two-hybrid library CCmax; conditions: mean of both orientations
T31 chain: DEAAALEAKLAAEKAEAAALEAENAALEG

[32] = target: T32, APC2811-AA; assay: two-hybrid library CCmax; conditions: mean of both orientations
T32 chain: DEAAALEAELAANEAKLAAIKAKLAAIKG

[33] = target: T33, APC2981-AA; assay: two-hybrid library CCmax; conditions: mean of both orientations
T33 chain: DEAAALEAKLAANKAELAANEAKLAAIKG

[34] = target: T34, APC3265-AA; assay: two-hybrid library CCmax; conditions: mean of both orientations
T34 chain: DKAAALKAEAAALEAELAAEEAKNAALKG

[35] = target: T35, APC3323-AA; assay: two-hybrid library CCmax; conditions: mean of both orientations
T35 chain: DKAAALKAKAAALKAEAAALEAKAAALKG

[36] = target: T36, APC3354-AA; assay: two-hybrid library CCmax; conditions: mean of both orientations
T36 chain: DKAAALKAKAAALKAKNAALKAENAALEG

[37] = target: T37, APC3881-AA; assay: two-hybrid library CCmax; conditions: mean of both orientations
T37 chain: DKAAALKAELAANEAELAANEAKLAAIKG

[38] = target: T38, APC4100-AA; assay: two-hybrid library CCmax; conditions: mean of both orientations
T38 chain: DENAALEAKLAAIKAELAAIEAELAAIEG

[39] = target: T39, APC4336-AA; assay: two-hybrid library CCmax; conditions: mean of both orientations
T39 chain: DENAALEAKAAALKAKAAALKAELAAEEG

[40] = target: T40, APC5009-AA; assay: two-hybrid library CCmax; conditions: mean of both orientations
T40 chain: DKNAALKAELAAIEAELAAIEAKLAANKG

[41] = target: T41, APC542-AA; assay: two-hybrid library CCmax; conditions: mean of both orientations
T41 chain: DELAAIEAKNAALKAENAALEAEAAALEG

[42] = target: T42, APC5531-AA; assay: two-hybrid library CCmax; conditions: mean of both orientations
T42 chain: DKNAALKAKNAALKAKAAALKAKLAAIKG

[43] = target: T43, APC6088-AA; assay: two-hybrid library CCmax; conditions: mean of both orientations
T43 chain: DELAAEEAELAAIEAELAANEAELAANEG

[44] = target: T44, APC7524-AA; assay: two-hybrid library CCmax; conditions: mean of both orientations
T44 chain: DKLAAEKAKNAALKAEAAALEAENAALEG

[45] = target: T45, APC8401-AA; assay: two-hybrid library CCmax; conditions: mean of both orientations
T45 chain: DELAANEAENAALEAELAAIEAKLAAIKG

[46] = target: T46, APC8516-AA; assay: two-hybrid library CCmax; conditions: mean of both orientations
T46 chain: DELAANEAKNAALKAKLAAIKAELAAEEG

[47] = target: T47, APC9141-AA; assay: two-hybrid library CCmax; conditions: mean of both orientations
T47 chain: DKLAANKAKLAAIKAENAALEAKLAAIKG

[48] = target: T48, APC9182-AA; assay: two-hybrid library CCmax; conditions: mean of both orientations
T48 chain: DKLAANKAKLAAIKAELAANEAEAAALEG

[49] = target: T49, APC9291-AA; assay: two-hybrid library CCmax; conditions: mean of both orientations
T49 chain: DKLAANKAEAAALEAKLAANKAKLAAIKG

[50] = target: T50, APC9806-AA; assay: two-hybrid library CCmax; conditions: mean of both orientations
T50 chain: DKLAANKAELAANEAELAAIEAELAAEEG

[51] = target: T51, 4H2610-bA; assay: two-hybrid library CCNG1
T51 chain: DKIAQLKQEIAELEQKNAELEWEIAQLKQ

[52] = target: T52, 4H2667-bA; assay: two-hybrid library CCNG1
T52 chain: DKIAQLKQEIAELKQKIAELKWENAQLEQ

[53] = target: T53, 4H2697-bA; assay: two-hybrid library CCNG1
T53 chain: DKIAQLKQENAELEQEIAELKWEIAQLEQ

[54] = target: T54, 4H3189-bA; assay: two-hybrid library CCNG1
T54 chain: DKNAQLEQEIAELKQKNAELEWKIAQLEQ

[55] = target: T55, 4H331-bA; assay: two-hybrid library CCNG1
T55 chain: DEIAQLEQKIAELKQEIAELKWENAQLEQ

[56] = target: T56, 4H3606-bA; assay: two-hybrid library CCNG1
T56 chain: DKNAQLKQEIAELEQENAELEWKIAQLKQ

[57] = target: T57, 4H370-bA; assay: two-hybrid library CCNG1
T57 chain: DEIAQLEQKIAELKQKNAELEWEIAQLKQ

[58] = target: T58, 4H3782-bA; assay: two-hybrid library CCNG1
T58 chain: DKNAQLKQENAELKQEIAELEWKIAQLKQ

[59] = target: T59, 4H3843-bA; assay: two-hybrid library CCNG1
T59 chain: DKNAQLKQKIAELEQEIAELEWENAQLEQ

[60] = target: T60, 4H4001-bA; assay: two-hybrid library CCNG1
T60 chain: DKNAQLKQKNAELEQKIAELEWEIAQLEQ

[61] = target: T61, 4H462-bA; assay: two-hybrid library CCNG1
T61 chain: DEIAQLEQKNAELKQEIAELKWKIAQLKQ

[62] = target: T62, 4H568-bA; assay: two-hybrid library CCNG1
T62 chain: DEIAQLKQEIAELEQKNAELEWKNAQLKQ

[63] = target: T63, 4H607-bA; assay: two-hybrid library CCNG1
T63 chain: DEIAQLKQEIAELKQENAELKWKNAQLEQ

[64] = target: T64, 4H687-bA; assay: two-hybrid library CCNG1
T64 chain: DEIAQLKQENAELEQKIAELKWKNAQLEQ

[65] = target: T65, 4H72-bA; assay: two-hybrid library CCNG1
T65 chain: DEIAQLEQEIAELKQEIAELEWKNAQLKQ

[66] = target: T66, 4H797-bA; assay: two-hybrid library CCNG1
T66 chain: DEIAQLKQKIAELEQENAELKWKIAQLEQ

[67] = target: T67, 4H883-bA; assay: two-hybrid library CCNG1
T67 chain: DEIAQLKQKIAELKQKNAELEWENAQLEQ

[68] = target: T68, 4H918-bA; assay: two-hybrid library CCNG1
T68 chain: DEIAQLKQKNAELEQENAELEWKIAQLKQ

[69] = target: T69, 4H953-bA; assay: two-hybrid library CCNG1
T69 chain: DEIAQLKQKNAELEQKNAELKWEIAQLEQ

[70] = target: T70, 4H967-bA; assay: two-hybrid library CCNG1
T70 chain: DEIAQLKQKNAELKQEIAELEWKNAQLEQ

Binder: DKIQQLKQEIQELEQKNQELKWEIQELKQ [4H2618-bN]
- interaction score [1]: 0.45
- interaction score [2]: -0.229
- interaction score [3]: 1.51
- interaction score [4]: -0.924
- interaction score [5]: 0.0545
- interaction score [6]: -0.0801
- interaction score [7]: -0.374
- interaction score [8]: 0.959
- interaction score [9]: 0.0822
- interaction score [10]: 0.00803
- interaction score [11]: -0.594
- interaction score [12]: -0.781
- interaction score [13]: -0.538
- interaction score [14]: 0.067
- interaction score [15]: -1.88
- interaction score [16]: -0.0391
- interaction score [17]: -0.758
- interaction score [18]: -0.442
- interaction score [19]: -0.128
- interaction score [20]: -0.67
- interaction score [21]: -0.249
- interaction score [22]: 0.595
- interaction score [23]: -1.09
- interaction score [24]: 0.558
- interaction score [25]: -1.12
- interaction score [26]: -1.39

Binder: DEAAALEAKAAALKAKLAAEKAKNAALKG [APC2375-AA]
- interaction score [27]: -1.68
- interaction score [28]: -1.59
- interaction score [29]: -1.57
- interaction score [30]: -1.42
- interaction score [31]: -1.62
- interaction score [32]: -1.74
- interaction score [33]: -1.45
- interaction score [34]: -1.44
- interaction score [35]: -1.82
- interaction score [36]: -1.67
- interaction score [37]: -1.74
- interaction score [38]: -1.47
- interaction score [39]: -1.65
- interaction score [40]: -0.913
- interaction score [41]: -1.83
- interaction score [42]: -1.77
- interaction score [43]: -1.06
- interaction score [44]: -1.49
- interaction score [45]: -0.731
- interaction score [46]: -1.58
- interaction score [47]: -1.6
- interaction score [48]: -1.83
- interaction score [49]: -1.88
- interaction score [50]: -1.72

Binder: DKIAQLKQEIAELEQKNAELEWEIAQLKQ [4H2610-bA]
- interaction score [51]: -0.2
- interaction score [52]: 0.718
- interaction score [53]: 0.713
- interaction score [54]: -0.366
- interaction score [55]: -0.211
- interaction score [56]: 0.322
- interaction score [57]: -1.17
- interaction score [58]: -0.515
- interaction score [59]: 0.444
- interaction score [60]: 0.0746
- interaction score [61]: 1.76
- interaction score [62]: -0.602
- interaction score [63]: -1.15
- interaction score [64]: -0.571
- interaction score [65]: -0.563
- interaction score [66]: -0.486
- interaction score [67]: 0.538
- interaction score [68]: 1.13
- interaction score [69]: 0.322
- interaction score [70]: -1.02
